Laboratory results published in patent US20260035728A1 (Chugai, published 2026).
Each block holds one binder with its values, some of them ahead of it.

Legend:
Assay in all cases: co-expression of both H chains with the common L chain; cation exchange chromatography (IEX), ratio of peak areas of A-Homo, BiAb and B-Homo; IgG4-type
[1] = molecular target: humanized B26 antibody H chain, IgG4-type w1 (D399K, E357K)
[2] = molecular target: humanized B26 antibody H chain, IgG4-type s1C (D399K, S354C)
[3] = molecular target: humanized B26 antibody H chain, IgG4-type w3 (E357K, E356K)
[4] = molecular target: humanized B26 antibody H chain, IgG4-type w2 (D399K, E356K)
[5] = molecular target: humanized B26 antibody H chain, IgG4-type w3C2 (E357K, E356K, Y349C)
[6] = molecular target: humanized B26 antibody H chain, IgG4-type w3C (E357K, E356K, S354C)

- BiAb formation efficiency (%) [1]: ≥ 90%
B1: humanized A69 antibody H chain, IgG4-type w1 (R409D, K370E) (other)
heavy: EVQLVQSGAEVVKPGSSVKVSCTASGYTFSDYYMHWVRQAPGEGLEWMGYINPSSGYTKYNRKFRDRVTITADKSTSTAYMELSSLRSEDTAVYYCARGGLGYYLDYWGEGTTVTVSSASTKGPSVFPLAPCSRSTSESTAALGCLVKDYFPEPVTVSWNSGALTSGVHTFPAVLQSSGLYSLSSVVTVPSSSLGTKTYTCNVDHKPSNTKVDKRVESKYGPPCPPCPAPEFLGGPSVFLFPPKPKDTLMISRTPEVTCVVVDVSQEDPEVQFNWYVDGVEVHNAKTKPREEQFNSTYRVVSVLTVLHQDWLNGKEYKCKVSNKGLPSSIEKTISKAKGQPREPQVYTLPPSQEEMTKNQVSLTCLVEGFYPSDIAVEWESNGQPENNYKTTPPVLDSDGSFFLYSDLTVDKSRWQEGNVFSCSVMHEALHNHYTQKSLSLSLGK

- BiAb formation efficiency (%) [2]: ≥ 90%
B2: humanized A69 antibody H chain, IgG4-type s1C (R409D, Y349C) (other)
heavy: EVQLVQSGAEVVKPGSSVKVSCTASGYTFSDYYMHWVRQAPGEGLEWMGYINPSSGYTKYNRKFRDRVTITADKSTSTAYMELSSLRSEDTAVYYCARGGLGYYLDYWGEGTTVTVSSASTKGPSVFPLAPCSRSTSESTAALGCLVKDYFPEPVTVSWNSGALTSGVHTFPAVLQSSGLYSLSSVVTVPSSSLGTKTYTCNVDHKPSNTKVDKRVESKYGPPCPPCPAPEFLGGPSVFLFPPKPKDTLMISRTPEVTCVVVDVSQEDPEVQFNWYVDGVEVHNAKTKPREEQFNSTYRVVSVLTVLHQDWLNGKEYKCKVSNKGLPSSIEKTISKAKGQPREPQVCTLPPSQEEMTKNQVSLTCLVKGFYPSDIAVEWESNGQPENNYKTTPPVLDSDGSFFLYSDLTVDKSRWQEGNVFSCSVMHEALHNHYTQKSLSLSLGK

- BiAb formation efficiency (%) [3]: ≥ 90%
B3: humanized A69 antibody H chain, IgG4-type w3 (K370E, K439E) (other)
heavy: EVQLVQSGAEVVKPGSSVKVSCTASGYTFSDYYMHWVRQAPGEGLEWMGYINPSSGYTKYNRKFRDRVTITADKSTSTAYMELSSLRSEDTAVYYCARGGLGYYLDYWGEGTTVTVSSASTKGPSVFPLAPCSRSTSESTAALGCLVKDYFPEPVTVSWNSGALTSGVHTFPAVLQSSGLYSLSSVVTVPSSSLGTKTYTCNVDHKPSNTKVDKRVESKYGPPCPPCPAPEFLGGPSVFLFPPKPKDTLMISRTPEVTCVVVDVSQEDPEVQFNWYVDGVEVHNAKTKPREEQFNSTYRVVSVLTVLHQDWLNGKEYKCKVSNKGLPSSIEKTISKAKGQPREPQVYTLPPSQEEMTKNQVSLTCLVEGFYPSDIAVEWESNGQPENNYKTTPPVLDSDGSFFLYSRLTVDKSRWQEGNVFSCSVMHEALHNHYTQESLSLSLGK

- BiAb formation efficiency (%) [4]: ≥ 90%
B4: humanized A69 antibody H chain, IgG4-type w2 (R409D, K439E) (other)
heavy: EVQLVQSGAEVVKPGSSVKVSCTASGYTFSDYYMHWVRQAPGEGLEWMGYINPSSGYTKYNRKFRDRVTITADKSTSTAYMELSSLRSEDTAVYYCARGGLGYYLDYWGEGTTVTVSSASTKGPSVFPLAPCSRSTSESTAALGCLVKDYFPEPVTVSWNSGALTSGVHTFPAVLQSSGLYSLSSVVTVPSSSLGTKTYTCNVDHKPSNTKVDKRVESKYGPPCPPCPAPEFLGGPSVFLFPPKPKDTLMISRTPEVTCVVVDVSQEDPEVQFNWYVDGVEVHNAKTKPREEQFNSTYRVVSVLTVLHQDWLNGKEYKCKVSNKGLPSSIEKTISKAKGQPREPQVYTLPPSQEEMTKNQVSLTCLVKGFYPSDIAVEWESNGQPENNYKTTPPVLDSDGSFFLYSDLTVDKSRWQEGNVFSCSVMHEALHNHYTQESLSLSLGK

- BiAb formation efficiency (%) [5]: ≥ 90%
B5: humanized A69 antibody H chain, IgG4-type w3C2 (K370E, K439E, S354C) (other)
heavy: EVQLVQSGAEVVKPGSSVKVSCTASGYTFSDYYMHWVRQAPGEGLEWMGYINPSSGYTKYNRKFRDRVTITADKSTSTAYMELSSLRSEDTAVYYCARGGLGYYLDYWGEGTTVTVSSASTKGPSVFPLAPCSRSTSESTAALGCLVKDYFPEPVTVSWNSGALTSGVHTFPAVLQSSGLYSLSSVVTVPSSSLGTKTYTCNVDHKPSNTKVDKRVESKYGPPCPPCPAPEFLGGPSVFLFPPKPKDTLMISRTPEVTCVVVDVSQEDPEVQFNWYVDGVEVHNAKTKPREEQFNSTYRVVSVLTVLHQDWLNGKEYKCKVSNKGLPSSIEKTISKAKGQPREPQVYTLPPCQEEMTKNQVSLTCLVEGFYPSDIAVEWESNGQPENNYKTTPPVLDSDGSFFLYSRLTVDKSRWQEGNVFSCSVMHEALHNHYTQESLSLSLGK

- BiAb formation efficiency (%) [6]: ≥ 90%
B6: humanized A69 antibody H chain, IgG4-type w3C (K370E, K439E, Y349C) (other)
heavy: EVQLVQSGAEVVKPGSSVKVSCTASGYTFSDYYMHWVRQAPGEGLEWMGYINPSSGYTKYNRKFRDRVTITADKSTSTAYMELSSLRSEDTAVYYCARGGLGYYLDYWGEGTTVTVSSASTKGPSVFPLAPCSRSTSESTAALGCLVKDYFPEPVTVSWNSGALTSGVHTFPAVLQSSGLYSLSSVVTVPSSSLGTKTYTCNVDHKPSNTKVDKRVESKYGPPCPPCPAPEFLGGPSVFLFPPKPKDTLMISRTPEVTCVVVDVSQEDPEVQFNWYVDGVEVHNAKTKPREEQFNSTYRVVSVLTVLHQDWLNGKEYKCKVSNKGLPSSIEKTISKAKGQPREPQVCTLPPSQEEMTKNQVSLTCLVEGFYPSDIAVEWESNGQPENNYKTTPPVLDSDGSFFLYSRLTVDKSRWQEGNVFSCSVMHEALHNHYTQESLSLSLGK
